{"source": "the DeepSol protein solubility set", "data": [{"experiment": "soluble on expression in E. coli; label from the status in PepcDB or PDB records", "values": [{"sequence": "MTTYPADTPIITQPPSPDSPSSSNGSSTSLSENLNNNSVSNQIEYVNQNNNSDNFTVGLGFLGASGNYGNYSSHLNNNLSISQNQSVSLNSSSSSVGAGLTPGNGSVGSTSNSSSAASSIQNIGLNSSLINSNTNNLSSSSHSMSGSNNNNSNNNVVNNYLTVYGNNGSSGGGSGSGGGSGPGADSPRIHCCRPCCPYSHHRRLCDPCYCSNRPESHRDSSSSEEVNDAQSDENTYFQFDFIGVDGHHARRVLPPSWRILRNSKAESSDESSLSDAVQTVDLPKIPQKKIRCVYSIDAEEIEGKKCMLECIRSSCLPRYVECHRRRRCSRKQRCHTTTQPPSPTTESLPTSTTTYEMNTTSLETSTTDISTITSTEEPISTTVKTHEQSSTSGMEFSTMSTTYEPITTTLETSTTDISIITSTEEPDTSTTTESNEQSSTTGMEFSTMSTTYEPITTSLETSTTDMLTNTSTEEPDISTTIEPNAQSTTYEMESSTVSVTYEPETTSLETSSTKVSSTTATGEPASTTMEANEHSSTFETESSTVPATNEPITTSFIPSTTDLSIITSTEEAKISTTMETDELSTTTESSYSTTQFTTFKIPTSSFSTLPMEGTSTKEQTTLSTEETSSATTATIFEKLSTTLFFEETQVTSTSDFTSSPRSIETTRVIEFDTSTELQTTSKTSTTTEDTTTVGTTTEMEMRRFWRLFG", "soluble on expression in E. coli": "not soluble"}, {"sequence": "MTTYTTNDFSEIVFGRKSVRVYDETHKISHEEMLTMIQEATTAPSSVNMQPWRFVVVESEAGKEKLKPLIRFNTRQNETSSAMLLIFGDLNCHERGEEIYNQAYASGKMPKEVRDQQLAAIIPHYESLSREQMNDIVKIDASLAAMQFMLVARAHGYETNPIGGFEAEKLAETFGLDQERYVPVMILSVGKGMETGYESVRLAPEKITTFE", "soluble on expression in E. coli": "not soluble"}, {"sequence": "MTVASLRGRTGTPVPKREVELRATWSSECVTRPMTEEERIKYGVAIPPKITNADGVQERRPILLPKKSKYAHVTKELVLTEFAKGKTAVQIEREQGMKPNTLYARLRAWGIRSPHSPKLRNETAAPPPSSSDTHRTDNRIDDIFWDVQIELRRAMSRFPRFNSAHEGYAVVLEELDEAWQAIKANDLIHARLGNDAGGRDGDPFPARPSDRRKGGGTATMTKAERSKSKRTATERTKLAIAPNPNRCFVLFSSTYLTAGSAIVSLNSLVRQLEKHPADHPIEDIRLDREALLMEILFVPEGGDPHAKHRSGPDQGI", "soluble on expression in E. coli": "not soluble"}, {"sequence": "MTVDPASHITIPEADLARLRHCNHHDPHGFYGWHETEAGSVIRTRQVGATQVNLLIDDTSHVMTPIGDDIFAIDLGHRERADYRLEVTWPDQEPQVKADPYYFLPTVG", "soluble on expression in E. coli": "not soluble"}, {"sequence": "MTVELKNEYLTVLINEAGAELSSVKSSDGIEYMWQADKTFWGRHAPVLFPIVGRLKDDQYTVAGQAYHMGQHGFARDNDFTVVNQTATQATFELTDSRATREMYPYAFRLRLIYTLTDHELTVNYNVHNPANQELLFSVGGHPAFNVPLADPAGTLADYKITVAPRKVYAHIPLQAPLNDAANADDFDLTKPLALSRDLFKDDALILDLNHHETTLMLDTDLDDHGVAMTIEDAPYVGMWSPYPAEAPFVCLEPWWGIADNVDSDGQLSHKMGINRLAANQTFDAKYAISFFLEHHHHHH", "soluble on expression in E. coli": "not soluble"}, {"sequence": "MTVIIKSMETPEEIEGKSFVHWQTWREAYDDLLPAEFQETMTLERCRLFSQKYPENTLIAMDGVKIVGFISYGNCRDETIQAGEIIALYVLKDYYGKGIAQKLVKAALTDLNHFSEIFLWVLKDNKRAIAFYQKMGFTFDGQEKILELGKPIKEKRMVFYSK", "soluble on expression in E. coli": "not soluble"}, {"sequence": "MTVLKLSHWRVLAELADGLPQHVSQLARMADMKPQQLNGFWQQMPAHIRGLLRQHDGYWRLVRPLAVFDAEGLRELGERSGFQTALKHECASSNDEILELARIAPDKAHKTICVTHLQSKGRGRQGRKWSHRLGECLMFSFGWVFDRPQYELGSLSPVAAVACRRALSRLGLDVQIKWPNDLVVGRDKLGGILIETVRTGGKTVAVVGIGINFVLPKEVENAASVQSLFQTASRRGNADAAVLLETLLVELDAVLLQYARDGFAPFVAEYQAANRDHGKAVLLLRDGETVFEGTVKGVDGQGVLHLETAEGKQTVVSGEISLRSDDRPVSVPKRRDSERFLLLDGGNSRLKWAWVENGTFATVGSAPYRDLSPLGAEWAEKADGNVRIVGCAVCGEFKKAQVQEQLARKIEWLPSSAQALGIRNHYRHPEEHGSDRWFNALGSRRFSRNACVVVSCGTAVTVDALTDDGHYLGGTIMPGFHLMKESLAVRTANLNRHAGKRYPFPTTTGNAVASGMMDAVCGSVMMMHGRLKEKTGAGKPVDVIITGGGAAKVAEALPPAFLAENTVRVADNLVIYGLLNMIAAEGREYEHI", "soluble on expression in E. coli": "not soluble"}, {"sequence": "MTVNVVVTDMDGTFLDDAKQYDRVRFMAQYQELKKRNIEFVVASGNQYYQLISFFPELKDEISFVAENGALVYEHGKQLFHGELTRHESRIVIGELLKDKQLNFVACGLKSAYVSKNAPETFVALMAKHYHRLQPVNDYHDIDDILFKFSLNLPDEQIPLVIDKLHVSLDGIMKPVTSGFGFIDLIIPGLHKANGISRLLKRWNRSPQNVVAIGDSGNDAEMLKMAHYSFAMGNAADNIKALSRYHTDDNNHQGALNVIQAVLDGTDPF", "soluble on expression in E. coli": "not soluble"}, {"sequence": "MTVQTKTKGLAWQEKPLSDNERLKTESNFLRGTILDDLKDPLTGGFKGDNFQLIRFHGMYEQDDRDIRAERAEAKLEPLKFM", "soluble on expression in E. coli": "not soluble"}, {"sequence": "MTVTFQNNPVSISGSFPKVGDRLPSFTLCGADLNDLSNEDFKGKKIVMSIFPSIDTPVCSKSVKVLQNALMTRNDTVLLCVSADLPFAMSRFCTEHAVANVTNASFFREPAFTERFGVNLNEGALRGLAARAVIVADEFGVITHSELVNEITNEPDYDRILMSL", "soluble on expression in E. coli": "not soluble"}, {"sequence": "MTWFIDRRLNGKNKSTVNRQRFLRRYKAQIKQSISEAINKRSVTDVDSGESVSIPTDDISEPMFHQGRGGLRHRVHPGNDHFIQNDRIERPQGGGGGGSGSGQGQASQDGEGQDEFVFQISKDEYLDLLFEDLALPNLKKNQHRQLNEYKTHRAGFTSNGVPANISVVRSLQNSLARRTAMTAGKRRELHALETELETISHSEPAQLLEEERLRREIAELRAKIERVPFIDTFDLRYKNYEKRPEPSSQAVMFCLMDVSGSMDQATKDMAKRFYILLYLFLSRTYKNVEVVYIRHHTQAKEVDEHEFFYSQETGGTIVSSALKLMDEVVKERYDPGQWNIYAAQASDGDNWADDSPLCHEILAKKLLPVVRYYSYIEITRRAHQTLWREYEHLQATFDNFAMQHIRDQEDIYPVFRELFQKQSANQSALEHHHHHH", "soluble on expression in E. coli": "soluble"}, {"sequence": "MTYCLGVKLKDGLVAIADTRITSGTDTTTAKKLFVHESAHGSLFLMTSGLRSVRDKAITYFKEVLKDEHVVYNQLYEAVNAFGNQLRRVAEEDRKALYAAGFAFNLHTIVGGQLKNDEEPKMFLLYPEGNWIELTQTSPFMIIGNSGYGKPILNRTVKYESTLEEVLKAGFLSFDSTRVSANDVDFPLDVVVYYNNSFKMIEHRFEKKDMEIISTTWDNQLKQALDSVPEEWMNVVFDRKNVLLEHHHHHH", "soluble on expression in E. coli": "not soluble"}, {"sequence": "MTYVFGPVSSKRLGQSLGVDLLPSKSCTWNCIYCQLGRTTAFVTERREFFPKEEILSEILETVASGKPIDWITFVGSGETTLYKGLDWLIAEVKKISKIPVAVITNGSLLSDPEVRRELLEADAVLPSLNAGSPELFERIDRPAPGFTFEKHVEGLRLFRQEYRGKLWVEVMLIRGVNDSEEALKEMAAVLAEIRPDMIHLVMPTRPAPESFVGIPDEELIQRAVFVLSSSAPVLHPAKGEMNLGSVGNLLDTVAGIASRHPVQERELEAALGKLFDGDAAKIRETMGELLASGRFEKVRQGSELYWIVKSA", "soluble on expression in E. coli": "not soluble"}, {"sequence": "MVAIIDASITRFGKRKESLLELAGEVALPLIGKYEIDFVVVSNSYSGEFNSLSGINNLITTYLSVDKVPSIRVDNTSGSGGSAILVAKSLLDSKITKTVLVLGVEKMSEKNTKQVTSVIASLLSPEEKIVGLTLPSLAGLMTKEYMRRYNASREAFALVAVKNHYNGSLNPFAHIQKVVSLEEVLNSPIIADPLTLYEFTPISDGASAIVMVRDEDAYSFTKKPVFI", "soluble on expression in E. coli": "not soluble"}, {"sequence": "MVAISEIKSTVDVTAANCLMLLSRVGQENVDGGDQKRVFTCKTCLKQFHSFQALGGHRASHKKPNNDALSSGLMKKVKTSSHPCPICGVEFPMGQALGGHMRRHRNESGAAGGALVTRALLPEPTVTTLKKSSSGKRVACLDLSLGMVDNLNLKLELGRTVY", "soluble on expression in E. coli": "not soluble"}]}]}
